Earlier results on 1 substance are cited in paper PMC3436762.

A word on the Kd: it is the constant that tells how readily two partners part at equilibrium.

The target in this data set is TRAIL (Homo sapiens) (UniProt P50591). The conditions noted are these: cited from earlier work.
Chain of UniProt P50591 (P50591 whole entry): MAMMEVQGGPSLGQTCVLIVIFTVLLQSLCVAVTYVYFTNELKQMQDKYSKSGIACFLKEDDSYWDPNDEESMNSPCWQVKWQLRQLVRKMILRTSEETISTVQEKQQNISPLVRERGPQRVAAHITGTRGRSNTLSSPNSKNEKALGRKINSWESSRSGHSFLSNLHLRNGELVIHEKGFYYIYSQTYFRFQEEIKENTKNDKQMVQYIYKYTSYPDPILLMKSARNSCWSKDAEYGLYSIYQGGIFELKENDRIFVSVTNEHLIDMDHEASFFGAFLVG

As to osteoprotegerin (from UniProt O00300), the Kd was 400 nM.
